Data taken from the RNAGym collection of RNA variant scans (doi:10.7554/elife.80360).

B1: Hairpin Ribozyme (parent)
chain: GUCCUCUUUCACGUGCGCGUGAAAGAGAGAAGUGAACCAGAGAAACACACGUUGUGGUAUAUUACCUGGUA

Variants of: B1
Test: self-cleavage, relative activity (ratio to wild type); higher = more cleavage; co-transcriptional

First: A30U A49U
Second: A36U U52G
The self-cleavage of the first is lower: 0.274 for the first, 0.466 for the second.

First: C18A G40A
Second: C6U C48U
The self-cleavage of the first is higher: 0.305 for the first, 0.227 for the second.

Compared with G13U C18A, C3U G21C is lower in self-cleavage: 0.915 for the first, 0.32 for the second.

First: C48G A59U
Second: G1C U9G
The self-cleavage of the first is lower: 0.0386 for the first, 0.125 for the second.

Going from C18U G68U to G17U U60G, the self-cleavage rises from 0.307 to 0.343.

Compared with U2C U55A, A43U U53G is lower in self-cleavage: 0.0763 for the first, 0.046 for the second.

First: A49G G51U
Second: A44C G69A
The self-cleavage of the first is higher: 0.532 for the first, 0.121 for the second.

First: G29A A71U
Second: G51U C65G
The self-cleavage of the first is lower: 0.126 for the first, 0.354 for the second.

First: C12G G21A
Second: G13C G21A
The self-cleavage of the first is higher: 0.683 for the first, 0.61 for the second.

Compared with G34A G42A, C16A C50A is higher in self-cleavage: 0.356 for the first, 0.361 for the second.

Going from G57U G69C to G27A G56C, the self-cleavage rises from 0.0914 to 0.101.

First: C4G U58A
Second: C3U A45U
The self-cleavage of the first is lower: 0.108 for the first, 0.159 for the second.

First: A26U A59C
Second: U20C G42A
The self-cleavage of the first is lower: 0.137 for the first, 0.19 for the second.

Going from G34U to U14G G21U, the self-cleavage falls from 1.42 to 0.625.

First: A23G G68C
Second: A23G G68U
The self-cleavage of the first is lower: 0.101 for the first, 0.198 for the second.

Going from G29A A64U to U20A A45C, the self-cleavage falls from 0.134 to 0.109.

First: C12U A39G
Second: A24G G29A
The self-cleavage of the first is higher: 0.297 for the first, 0.11 for the second.

First: A11G G15A
Second: U5A C65G
The self-cleavage of the first is higher: 0.896 for the first, 0.276 for the second.

Compared with U60G A71U, G13U U67C is lower in self-cleavage: 0.395 for the first, 0.211 for the second.

Compared with C50A G54A, G17C A45G is lower in self-cleavage: 0.742 for the first, 0.112 for the second.

Going from U8C A41U to A47U C65U, the self-cleavage falls from 1.12 to 0.0249.

First: U55C C66G
Second: G19A A28U
The self-cleavage of the first is lower: 0.191 for the first, 0.408 for the second.

Going from A44U A45U to G1U C38G, the self-cleavage falls from 0.229 to 0.0981.

Going from A31G U58A to A11G G13A, the self-cleavage rises from 0.323 to 0.924.

Compared with C10A G40U, G15A U53G is higher in self-cleavage: 0.141 for the first, 0.687 for the second.

Going from C3U A31C to C3U A31G, the self-cleavage rises from 0.267 to 0.296.

Compared with C18U G27U, U33G G68C is lower in self-cleavage: 0.303 for the first, 0.0688 for the second.

Compared with G42A G57A, G13C A36G is higher in self-cleavage: 0.14 for the first, 0.816 for the second.

Compared with A44C U53A, G42A U67C is lower in self-cleavage: 0.186 for the first, 0.105 for the second.

First: U5A U7A
Second: U14G G68A
The self-cleavage of the first is lower: 0.105 for the first, 0.32 for the second.

First: C10G U55C
Second: C10A U70A
The self-cleavage of the first is lower: 0.16 for the first, 0.498 for the second.

Compared with C16A U33A, G27U A35C is higher in self-cleavage: 0.17 for the first, 0.44 for the second.

Compared with C4U G51C, A36C C65A is higher in self-cleavage: 0.337 for the first, 0.52 for the second.

First: C37G A44C
Second: G51C C66A
The self-cleavage of the first is lower: 0.16 for the first, 0.184 for the second.

First: C10G C18U
Second: A23G U52G
The self-cleavage of the first is higher: 0.842 for the first, 0.78 for the second.

First: G13C U33A
Second: U53C U58C
The self-cleavage of the first is lower: 0.0736 for the first, 1.26 for the second.

Going from A35G A41U to G17A A47C, the self-cleavage falls from 1.28 to 0.319.

Going from U20A A47U to U7G A44C, the self-cleavage falls from 0.274 to 0.195.

First: G34C A41U
Second: A24G A43G
The self-cleavage of the first is higher: 1.42 for the first, 0.132 for the second.

Going from U33A A43U to G27U A36U, the self-cleavage falls from 0.115 to 0.0647.

Going from A22G A59C to A44C U63C, the self-cleavage rises from 0.122 to 0.172.

First: A36G A64C
Second: A11C A59C
The self-cleavage of the first is higher: 0.17 for the first, 0.0956 for the second.
